Measured values from the supplement of paper PMC7877785.
± gives the uncertainty stated by the source.

Test: self-splicing fitness, log relative to wild type (ln ratio); higher = more splicing; Tetrahymena group I intron in knt gene, E. coli kanamycin selection, DiMSum; sequences stand for … in CUCUCU…GGAGGGAAAAGUUAUCAGGCAUGCACCUGGUAGCUAGUCUUUAAACCAAUAGAUUGCAUCGGUUUAAAAGGCAAGACCGUCAAAUUGCGGGAAAGGGGUCAACAGCCGUUCAGUACCAAGUCUCAGGGGAAACUUUGAGAUGGCCUUGCAAAGGGUAUGGUAAUAAGCUGACGGACAUGGUCCUAACCACGCAGCCAAGUCCUAAGUCAACAGAUCUUCUGUUGAUAUGGAUGCAGUUCACAGACUAAAUGUCGGUCGGGGAAGAUGUAUUCUUCUCAUAAGAUAUAGUCGGACCUCUCCUUAAUGGGAGCUAGCGGAUGAAGUGAUGCAACACUGGAGCCGCUGGGAACUAAUUUGUAUGCGAAAGUAUAUUGAUUAGUUUUGGAGUACUCGUGGUCG
Outline: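 Fitness was computed with DiMSum as the error-weighted combination of replicate fold changes, kanamycin versus none, each normalised to wild type. The library randomised all eight intron nucleotides of the P1ex region, with the intron placed in the knt kanamycin-resistance gene on pET-22b(+) in E. coli BL21(DE3). Six replicate transformations were grown overnight at 37°C or 30°C on LB agar with or without 25 μg/mL kanamycin, plus 100 μg/mL carbenicillin, 50 μM IPTG and 0.2% rhamnose. Pooled colonies were amplicon-sequenced on an Illumina HiSeq 2500.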

Sequence | self-splicing fitness (ln) (30 °C) | self-splicing fitness (ln) (37 °C)
UCCUAGCAAUAUUACGUAGA | -2.36 ± 0.05 | -0.729 ± 0.069
AGGCAGCAAUAUUACGCUUC | – | -1.31 ± 0.28
AGACAGCAAUAUUACGCCGG | -2.95 ± 0.18 | -1.67 ± 0.16
CGUAAGCAAUAUUACGUCUA | -2.78 ± 0.28 | -2.03 ± 0.18
GGGGAGCAAUAUUACGAUAU | -2.95 ± 0.4 | -0.987 ± 0.24
CUACAGCAAUAUUACGAGGU | -2.63 ± 0.13 | -3.03 ± 0.27
AAUUAGCAAUAUUACGGGGC | -2.38 ± 0.21 | –
UUUCAGCAAUAUUACGCCGA | – | -0.923 ± 0.44
CACAAGCAAUAUUACGGCCG | -0.104 ± 0.077 | 0.524 ± 0.1
GAGCAGCAAUAUUACGAACA | -1.47 ± 0.12 | -1.07 ± 0.15
UCACAGCAAUAUUACGACAG | -2.15 ± 0.082 | -1.47 ± 0.088
UUGAAGCAAUAUUACGCGGG | -1.95 ± 0.1 | -0.668 ± 0.12
CCAGAGCAAUAUUACGGAAU | -3.42 ± 0.26 | -2.52 ± 0.17
GCUAAGCAAUAUUACGAGUU | -1.33 ± 0.082 | -0.818 ± 0.11
GAUUAGCAAUAUUACGGUCG | -1.28 ± 0.11 | -0.366 ± 0.13
ACGAAGCAAUAUUACGUGCA | -0.772 ± 0.066 | 0.325 ± 0.084
UCCUAGCAAUAUUACGUGAU | -3.3 ± 0.28 | -1.9 ± 0.24
AGUUAGCAAUAUUACGCGCG | -0.159 ± 0.12 | -0.151 ± 0.15
GCAAAGCAAUAUUACGCGUG | -3.41 ± 0.1 | -1.27 ± 0.078
CGGCAGCAAUAUUACGUCUU | -1.09 ± 0.066 | 0.328 ± 0.086
UACGAGCAAUAUUACGCUUC | -2.53 ± 0.25 | -1.32 ± 0.3

Sequence | self-splicing fitness (ln) (30 °C) | self-splicing fitness (ln) (37 °C)
AGCAAGCAAUAUUACGAGGU | -3.87 ± 0.42 | -1.96 ± 0.2
ACGGAGCAAUAUUACGACUG | -1.95 ± 0.14 | -0.681 ± 0.13
AUAAAGCAAUAUUACGCGGA | -1.65 ± 0.083 | 0.155 ± 0.089
UACCAGCAAUAUUACGUCCA | -0.321 ± 0.081 | 0.176 ± 0.091
CAAAAGCAAUAUUACGAGGG | -2.77 ± 0.14 | -2.53 ± 0.21
GUAUAGCAAUAUUACGCGUA | -2.69 ± 0.29 | -1.41 ± 0.22
UUUGAGCAAUAUUACGGCCA | – | -1.17 ± 0.46
CUAUAGCAAUAUUACGGGGG | -2.16 ± 0.23 | -3.09 ± 0.43
AGUGAGCAAUAUUACGCAUU | -2.55 ± 0.21 | -1.4 ± 0.19
UGGGAGCAAUAUUACGUGGU | -2.97 ± 0.35 | -1.56 ± 0.26
AAAUAGCAAUAUUACGUACA | -1.23 ± 0.071 | -0.523 ± 0.092
CGAUAGCAAUAUUACGUUGU | -3.45 ± 0.15 | -2.61 ± 0.21
GCGAAGCAAUAUUACGGUAU | -3.35 ± 0.18 | -0.774 ± 0.1
CCAAAGCAAUAUUACGAAGA | -3.61 ± 0.27 | -2.2 ± 0.22
ACUUAGCAAUAUUACGGAGG | -2.19 ± 0.13 | -1.48 ± 0.16
UUCUAGCAAUAUUACGUCAG | -3.16 ± 0.37 | -1.75 ± 0.26
UCGUAGCAAUAUUACGGGGA | -2.6 ± 0.28 | -1.23 ± 0.23
AUUUAGCAAUAUUACGCAGU | -3 ± 0.28 | -2.18 ± 0.26
ACGAAGCAAUAUUACGCUAC | -2.09 ± 0.14 | -2.81 ± 0.15
AUGGAGCAAUAUUACGCACG | -2.3 ± 0.3 | -1.26 ± 0.34
AAUUAGCAAUAUUACGCGCU | -0.647 ± 0.13 | -0.214 ± 0.2

Sequence | self-splicing fitness (ln) (30 °C) | self-splicing fitness (ln) (37 °C)
UAUGAGCAAUAUUACGCUAG | -3.34 ± 0.41 | –
GCCAAGCAAUAUUACGUGCC | -3.36 ± 0.25 | -0.392 ± 0.17
UGCAAGCAAUAUUACGAGCA | -2.28 ± 0.15 | -1.39 ± 0.12
GUACAGCAAUAUUACGGCUA | 0.707 ± 0.15 | 0.282 ± 0.12
ACUUAGCAAUAUUACGCUUA | -1.26 ± 0.15 | -1.75 ± 0.21
CGAUAGCAAUAUUACGCACU | -1.12 ± 0.14 | 0.174 ± 0.14
GGCGAGCAAUAUUACGGUGC | -2.76 ± 0.16 | -1.86 ± 0.23
UAACAGCAAUAUUACGUAAA | -2.6 ± 0.089 | -0.884 ± 0.084
GCGCAGCAAUAUUACGAACG | -1.37 ± 0.11 | -0.329 ± 0.17
GCGAAGCAAUAUUACGGUGU | -3.59 ± 0.14 | -2.66 ± 0.13
UGCUAGCAAUAUUACGUAUA | -2.81 ± 0.24 | -1.1 ± 0.16
AGAAAGCAAUAUUACGAGAU | -3.45 ± 0.24 | -1.99 ± 0.2
UUUAAGCAAUAUUACGCGAG | -0.722 ± 0.11 | 0.0933 ± 0.13
UCUAAGCAAUAUUACGUUCA | -2.37 ± 0.17 | -1.56 ± 0.15
CUCGAGCAAUAUUACGACGU | -3.11 ± 0.14 | -1.59 ± 0.14
UAGGAGCAAUAUUACGCAUU | -3.91 ± 0.35 | -2.42 ± 0.42
UUGUAGCAAUAUUACGUGGG | -4.04 ± 0.46 | -2.06 ± 0.24
UUGCAGCAAUAUUACGUAGC | -2.96 ± 0.3 | –
AUAAAGCAAUAUUACGCCGG | -0.516 ± 0.13 | -0.807 ± 0.17
CGUUAGCAAUAUUACGCGCC | -2.21 ± 0.39 | -1.05 ± 0.27
